Test results: the RNAGym collection of RNA variant scans (doi:10.1073/pnas.2313332121)

B1: TPR t1 (parent)
chain: GACCAAUCUGCCCUCAGAGCUCGAGAACAUCUUCGGAUGCAGAGGAGGCAGGCUUCGGUGGCGCGAUAGCGCCAACGUCCUCAACCUCCAAUGCAUCCCACCACAUGAUGAUGCCUGAAGAGCCUUGGUUUUUUG

Variants of: B1
Assay: polymerase ribozyme fitness, log enrichment relative to wild type (log ratio); higher = more active; in vitro selection for triplet polymerase activity
Procedure, shortened: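 Each subunit of a heterodimeric triplet polymerase ribozyme was represented by a PCR-built, transcribed mutant library that underwent triplicate single-round in vitro selection with frozen incubation at −7 °C. Extended constructs were recovered by gel excision, streptavidin-bead capture and RT-PCR, and Illumina sequencing of input and output libraries kept genotypes with ≥10 input reads and ≥1 read per output. Fitness is the logarithm of genotype enrichment relative to wild-type enrichment, from inverse-variance-weighted replicate averages, with a logarithm base of 2.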

| Variant | polymerase ribozyme fitness (log ratio) |
| --- | --- |
| GACCAAUCUGGCCUCAGAGCUCGAGAACAUCUUCGGAUGCAGAGGAGGCAGGCUUCGGUGGCGCGAUAGCGCCAACUUCUUCAACCUCCAAUGCAUCCCACCACAUGAUGAUUCCUGAAGAGCCUUGGUUUUUUG [C11G G77U C80U G113U] | -3.12 |
| GACCAAUCUGGCCUCAGAGCUCGAGAACAUCUUCGGAUGCAGAGGAGGCAGACUUCGGUGGCGCGAUAGCGCCAACGUCCUCAACCUCCAAUGCAUCCUACCACAGGAUGAUGCCUGAAGAGCCUUGGUUUUUUG [C11G G52A C99U U106G] | -4.99 |
| GACCAAUCUGGCCUCAGAGCUCGAGAACAUCUUCGGAUGCAGAGGAGGCAGGCUUCGGUGUCGCGAUAGCGCCAACGUCCUCAACAUCCAAUGCAUCCCACCACAGGAUGAUGUCUGAAGAGCCUUGGUUUUUUG [C11G G61U C86A U106G C114U] | -4.18 |
| GACCAAUCUGGCCUCAGAGCGCGAGAACAUCUUCGGAUGCAGAGGAGGCAGGCUUCGGUGGCGCGAUAGCGCCAACGUCCUCAACCUCCAAUACAUCCCACCACAUGAUGAUGCCUGAAGAGCCUUGGUUUUUUG [C11G U21G G93A] | -2.28 |
| GACCAAUCUGGCCUCAGAGCUCGAGAACAUCUUCGGAUGCAGAGGAGGCAGGCUUCGGUGGCGCGAUAGCACCAACGUCCUCAACCUCCAAUGCAUCCCACCACAGGAUGAUGCCUGAAGAGCCUUGGUUUUUUG [C11G G71A U106G] | -2.48 |
| GACCAAUCUGGCCUCAGAGCUCGAGAACAUCUUCGGAUGCAGAGGAGGCAGGCUUCGGUGGCGCGAUAAAGCCAACGUCCUCAACCUCCAAUGCAUCCCACCACAUGAUGAUGCCUGAAGAGCCUUGGUUUUUUG [C11G G69A C70A] | -4.98 |
| GACCAAUCUGGCCACAGAGCUCGAGCACAUCUUCGGAUGCAGAGGAGGCAGGCUUCGGUGGCGCGAUAGCGCCAACGUCAUCAACCUCUAAUGCAUCCCACCACAUGAUGAUGCCUGAAGAGCUUUGGUUUUUUG [C11G U14A A26C C80A C89U C124U] | -6.54 |
| GACCAAUCUGGCCUCAGAGCUCGAGAACAUCUUCGGAUGCAGAGGAGGCAGGCUUCGGUGCCGCGAUAGCGCCAACGACCUCAACCUCCAAUGCAUCCCACCACAUGAUGAUGCCUGAAGAGCCUAGGUUUUUUG [C11G G61C U78A U126A] | -0.897 |
| GACCAAUCUGGCCUCAGAGCUCGAGAACAUCAUUGGAUGCAGAGGAGGCAGGCUUCGGUGGCGCGAUAGCGCCAACGUCCUCAACCUCCAAUGCAUCCCACCACAUGAUGAUGCGUGAAGAGCCUUGGUUUUUUG [C11G U32A C34U C115G] | -8.31 |
| GACCAAUCUGGCCUCAGAGCUCGAGAACAUCUUCGGAUGCAGAGGAGUCAGGCUUCGGUGGCGCGAUAGCGACAACGUCCUCAACCUCCAAUGCAUCCCACCACAUGAUGAUGCCUGAAGAGCCUUGGUUUUUUG [C11G G48U C72A] | -0.215 |
| GACCAAUCUGGCCUCAGAGCUCGAGAACAUCUUCGGAUGCAGAGGAGUCAGGCUUCGGUGACGCGAUAGCGCAAACGUCCUCAACCUCCGAUGCAUCCCACCACAUGAUGAUGCCUGAAGAGCCUUGGUUUUUUG [C11G G48U G61A C73A A90G] | -2.19 |
| GACCAAUCUGGCCUCAGAGCUCGAGAACAUCUUCGGAUGCAGAGGAGGCAGGCUUCGGUGGCGCGAUAGCGCCAACGUCCUCAACCUCCAAUGCAUCCCACCACAUGAUGAUGCCUGAAGAGCCUUGGUUUUUAG [C11G U134A] | 0.54 |
| GACCAAUCUGGCCUCAGAGCUCGAGAACAUCUUCGGAUGCAGAGGAGCCAGGCUUCGGUGGCGCGGUAGCGCCAACGUCCUCAACCUCCAAUGCAUCCCACCACAUGAUAAUGCCUGAAGAGCCUUGGUUUUUUG [C11G G48C A66G G110A] | -3.11 |
| GACCAAUCUGGCCUCAGAGCUCGAGAACAUCUUCGGAUGCAGAGGAGGCAGGCUCCGGUGGGGCGAUAGCGCCAACGUCCUCUACCUCCAAUGCUUCCCACCACAUGAUGAUGCCUGAAGAGCCUUGGUUUUUUG [C11G U55C C62G A83U A95U] | -1.47 |
| GACCAAUCUGGCCUCAGAGCUCGAGAACAUCUUCGGAUGCAGAGGAGGCAGACUUAGGUGGCGCGAUAGCGCCAACGUCCUCAACCUCCAAUGCAUCCCACCACAUGAUGAUGCCUGAAGAGCCUUGGUUUUUUG [C11G G52A C56A] | -0.203 |
| GACCAAUCUGUCCUCCGAGCUCGAGAACAUCUUCGGAUGCAGAGGAGGCAGGCUUCGGUGGCGCGAUAGCGCCAACGUCCUCAACCUCCAAUCCAUCCCACCACAUGAUGAUGCCUGAAGAGCCUUGGUUUUUUG [C11U A16C G93C] | -4.45 |
| GACCAAUCUGGCCUCAGAGCUCGAGAACAUCUUCGGAUGCAGAGGAGGCAAGCUUCGGUGGCGCGAUAGCGACAACGUCCUCAACCUCCAAUGCAUCCCACCACAUGAUGAUGCCUGAAGAGCCUUGGUUUUUUG [C11G G51A C72A] | -2.19 |
| GACCAAUCUGGCCUCAGAGCUCGAGAACAUCUGCGGAUGCAGAGGAGGCAGGCUUCGGUGGCGCGAUAGCGCCAACGUCCUCAACCUCCAAUGCGUCCCAUCACAUGAUGAUGCCUGAACAGCCUUGGUUUUUUG [C11G U33G A95G C101U G120C] | -5.25 |
| GACCAAUCUGGCCUCAGAGCUCGAGAACAUCUUCGGAUGCAGAGGAGGCAGGCUUCGGUGGCGCGAUAGCGCCAACGUCCUCAACCUCCAAUGCAUCCCACCACAUGAUGAUGCCUGAAGAACCUUGGUUUUUUG [C11G G122A] | 0.352 |
| GACCAAUCUGGCCUCAGAGCUCGAGAACAUCUUCGGAUGCAGAGGAGGCAGGCUUCGGUGGCGCGAUAGCGCCAACGUCCUCAACCUCCAAUGCAUCCCACCACAUGAUUAUGCCUGAAGAGCCAUGGUUUUUUG [C11G G110U U125A] | -0.479 |
| GACCAAUCUGGCCUCAGAGCUCGAGAACAUCUUCGGAUGCAGAGGAGGCAGGCUUCGGUGGCGCGAUAGCACCAACGUCCUCAACCUCUAAUGCAUCCCACCACAUGAUUAUGCCUGAAGAGCCUUGGUUUUUUG [C11G G71A C89U G110U] | -3.53 |

| Variant | polymerase ribozyme fitness (log ratio) |
| --- | --- |
| GACCAAUCUGGCCUCAGAGCUCGAGAACAUCUUCGGAUGCAGAGGAGGCAGGCUUCGGUGGCGCGAUAGCGCCAACGUCCUCAACCUCCAAUGCAUCCCACCACAUGAUGAUGCCUGAAGAGCCUUGGUAUUUUG [C11G U130A] | 0.0419 |
| GACCAAUCUGGCCUCAGAGCUCGAGAACAUCUUCGGAUGCAGAGGAGGCAGGCUUCGGUGCCGCGAUAGCGCCAACGCCCUCAACCUCCAAUGCAUCCCACCACAUGAUGAUGCCUGAAGAGCCUAGGUUUUUUG [C11G G61C U78C U126A] | -4.7 |
| GACCAAUCUGGCCUCAGAGCUCGAGAACAUCUUCGGAUGCAGAGGAGGCAGGCUUCGGUGGCACGAUAGCGCCAACGUCCUCAACCUCCAAUGCAUCCCACCACAUGAUGGUGCCUGAAGAGCCUUGGUUUUUUG [C11G G63A A111G] | -0.361 |
| GACCAAUCUGGCCUCAGAGCUCGAGAACAUCUUCGGAUGCAGAGGAUGCAGGCUUCGGUGGCACGAUAGCGCCAACGUACUCAACCUCCAAUGCAUCCCACCACAUGAUGAUGCCUGAAGAGCCUUGGUUUUUUG [C11G G47U G63A C79A] | -3.91 |
| GACCAAUCUGGCCUCAGAGCUCGAGAACAUCUUCGGAUGCAGAGGAGGCAGUCUUCGGUGGCGCGAUAGCGCCAACGUCCUCAACCUCCAAUGCAUCCCACCACAUGAUGAUGCCUGGAGAGCGUUGGUUUUUUG [C11G G52U A118G C124G] | 0.453 |
| GACCAAUCUGGCCUCAGAGCUCGAGAACAUCUUCGGAUGCAGAGGAGGCAGGCUUCGGUGGCGCGAUAGCGCCAACGUCCUCAACCUCCAAUGCAUCCCACCACAUGAUGAUGCCUUAAGAGCCUUUGUUUUUUG [C11G G117U G127U] | -3.47 |
| GACCAAUCUGGCCUCAGAGCUCGAGAACAUCUUCGGAUGCAGAGGAGGCAGACAUCGGUGGCGCGAUAGCGCCAACGUCCUCAACCUCCAAUGCAUCACACCACAUGAUGAUGCCUGAAGAGCCUUGGUUUUUUG [C11G G52A U54A C98A] | -5.44 |
| GACCAAUCUGGCCUCAGAGCUCGAGAACAUCUUCGGAUGCAGAGGAGGCAGGCUUCGGUGACGUGAUAGCGCCAACGUCCUCAACCUCCAAUGCAUCCCACCACAUGAUGAUGCCUGAAUAGCCUUGGUUUUUUG [C11G G61A C64U G120U] | -0.77 |
| GACCAAUCUGGCCUCAGAGCUCGAGAACAUCUUCGGAUGCAGAGGAGGCAGGCUUCGGUGGCGCGAUAGCGCCAACGUCCUCAACCUCCAAUGCAUCCCACCACAUGAUGAUACCUGAAGAGCCUUGGUUUUUUG [C11G G113A] | -0.119 |
| GACCAAUCUGGCCUCAGAGCUCGAGAACAUCUUCGGAUGCAGAGGAGGCAGGCUUCGGAGGCGCGAUUGCGCCAACGUCCUCAACCUCCAAUGCAUCCCACCACAUGAUGAUGCCUGAAGAGCCUUGGUUUUUUG [C11G U59A A68U] | -7.59 |
| GACCAAUCUGGCCUCAGAGCACGAGAACAUCUUCGGAUGCAGAGGAGGCAGGCUUCGGUGGCGCGAUAGCGCCAACAUCCUCAACCUCCAAUGCAUCCCACCACAUGAUGAUGCCUGAAGAGCCUUGGUUUUUUG [C11G U21A G77A] | -0.311 |
| GACCAAUCUGGCCUCAGAGCUCGAGAACAUCUUCGGAUGCAGAGGAGGCAGGCUUCGGUGGCGCGAUAGCGCCAACGUCCUCAACCUCCAAUGCAUCCCACCACAUCAUGAUGCCUGAAGAGCCUUGGUUUUUUG [C11G G107C] | -4.6 |
| GACCAAUCUGGCCUCAGAGCUCGAGAACAUCGUCGGAUGCAGAGGAGGCAGGCUUCGGUGGCGCGAUAGCGCCAACGUCCUCAACCUCCAAUGCAUCCCACCACAUGAUGAUGCCUGAAGAGCCAGGGUUUUUUG [C11G U32G U125A U126G] | -6.54 |
| GACCAAUCUGGCCUCAGAGCUCGAGAACAUCUUCGGAUGCAGAGGAGGCAGGCUUCGGUGGCGCGAUAGCGCCAACGUCCUCAACCUCCAAUGCAUCCCACCACAUGAUGAUACCUGAAGAGCCUUGGUUUUAUG [C11G G113A U133A] | -1.34 |
| GACCAAUCUGGCCUCAGAGCUCGAGAACAUCUUCGGAUGCAGAGGAGGCAGGCUUCGGUAGCGCGAUAGUGCCAACGUCCUCAACCUCCAAUGCAUCCCACCACAUGAUGAUGCCUGAAGAGCCUUGGUUUUUUG [C11G G60A C70U] | -0.917 |
| GACCAAUCUGUCCUCCGAGCUCGAGAACAUCUUCGGAUGCAGAGGAGGCAGGCUUCGGUGGCACGAUAGCGCCAACGUCCUCAACCUCCAAUGCAUCCCACCACAUGAUGAUGCCUGAAGAGCCUUGGUUUUUUG [C11U A16C G63A] | -3.2 |
| GACCAAUCUGGCCUCAGAGCUCGAGAACAUCUUCGGAUGCAGAGGAGGCAGGCUUCGGUGGCGCGAUAGCGCCAACGUCCUCAACCUCCAAUGCAUCCCACCACAUGAUGAUGCCUGAAGAGCCUUGGGUUUUUG [C11G U129G] | -1.77 |
| GACCAAUCUGGCCUCAGAGCUCGAGAACAUCUUCGGAAGCAGAGUAGGCCGGCUUCGGUGGCGCGAUAGCGCCAACGUCCUCAACCUCCAAUGCAUCCCACCACAUGAUGAUGCCUGAAGAGCCUUGGUUUUUUG [C11G U38A G45U A50C] | -2.51 |
| GACCAAUCUGGCCUCAGAGCUCGAGAACAUCUUCGGAUGCAGAGGAGGCAGGCUUCGGUGGCGCGAUAGCGCCAACGUCCUCAACCUCCAAUGCAUCCCACCACAUGAGGAUGCCUGAAGAGCCUUGGUUUUUUG [C11G U109G] | -4.69 |
| GACCAAUCUGGCCUCAGAGCUCGAGAACAUCUUCGGAUGCAGAGGAGGCAGGCUUCGGUGGCGCGAUAGCGCCAACGUCCUCAACCUCCAAUGCAUCCCACCACAUGAUGAUGCCUAAAGAGCCUUGGUUUUUUG [C11G G117A] | -0.219 |
| GACCAAUCUGGCCUCAGAGCUCGAGAACAUCUUCGGAUGCAGAGGAGGCACGCUUCGGUGGCGCGAUAGCGCCAACGUCCUCAACCUCCAAUGCAUCCCACCACAUGAUGAUGCCUGAAGAGCCUUGGUUUUUUG [C11G G51C] | -4.46 |
